# Reference: the supplement of paper PMC9112550, “Optimization of the antimicrobial peptide Bac7 by deep mutational scanning” (BMC Biology, 2022)
# System: Escherichia coli TOP10
# Assay: shrunken log2 fold change of peptide-encoding DNA abundance (4.5 h post-induction vs induction); higher = less antimicrobial activity (less host growth inhibition)
# Details: time post-induction: 4.5 h; library: site-saturation at positions 5, 18, 19, 20
# 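Further: peptides expressed intracellularly from a pBAD plasmid library in pooled LB shake-flask culture, induced with 0.3% L-arabinose, DNA abundance read by NGS, three biological replicates, DESeq2 with apeglm shrinkage.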
row,Sequence,shrunken log2 fold change
1,RRIRNRPPRLPRPRPRPLQLPRP,-0.288
2,RRIRRRPPRLPRPRPRPWCCPRP,-0.0571
3,RRIRYRPPRLPRPRPRPEMWPRP,0.0929
4,RRIRCRPPRLPRPRPRPAIIPRP,-0.786
5,RRIRMRPPRLPRPRPRPYSPPRP,-0.199
6,RRIRDRPPRLPRPRPRPRAMPRP,-0.0837
7,RRIRKRPPRLPRPRPRPLATPRP,0.527
8,RRIRERPPRLPRPRPRPQLKPRP,-0.358
9,RRIRMRPPRLPRPRPRPFQYPRP,0.00421
10,RRIRCRPPRLPRPRPRPNAMPRP,0.0678
11,RRIRVRPPRLPRPRPRPPLEPRP,0.431
12,RRIRWRPPRLPRPRPRPSQHPRP,0.0667
13,RRIRERPPRLPRPRPRPQIGPRP,-0.0217
14,RRIRNRPPRLPRPRPRPHVNPRP,-0.237
15,RRIRGRPPRLPRPRPRPEAVPRP,2.27
16,RRIRNRPPRLPRPRPRPRPRPRP,0.586
17,RRIRKRPPRLPRPRPRPTTMPRP,0.171
18,RRIRERPPRLPRPRPRPEIRPRP,-0.163
19,RRIRERPPRLPRPRPRPFWKPRP,-0.125
20,RRIRKRPPRLPRPRPRPPSTPRP,0.661
21,RRIRLRPPRLPRPRPRPHLVPRP,0.0694
22,RRIRYRPPRLPRPRPRPMWNPRP,-0.302
23,RRIRIRPPRLPRPRPRPFIFPRP,-0.696
24,RRIRMRPPRLPRPRPRPMMAPRP,1.8
25,RRIRSRPPRLPRPRPRPCHQPRP,-0.0637

row,Sequence,shrunken log2 fold change
1,RRIRARPPRLPRPRPRPLGLPRP,0.353
2,RRIRTRPPRLPRPRPRPFTQPRP,-0.487
3,RRIRERPPRLPRPRPRPSIRPRP,-0.242
4,RRIRLRPPRLPRPRPRPKGDPRP,0.182
5,RRIRPRPPRLPRPRPRPILVPRP,-0.178
6,RRIRDRPPRLPRPRPRPGIHPRP,-0.89
7,RRIRCRPPRLPRPRPRPHMDPRP,-0.329
8,RRIRTRPPRLPRPRPRPYGPPRP,-0.406
9,RRIRHRPPRLPRPRPRPVLRPRP,-0.0204
10,RRIRCRPPRLPRPRPRPADNPRP,-0.219
11,RRIRQRPPRLPRPRPRPNWIPRP,-0.0614
12,RRIRLRPPRLPRPRPRPFIEPRP,-0.372
13,RRIRWRPPRLPRPRPRPDSEPRP,1.48
14,RRIRGRPPRLPRPRPRPCHKPRP,0.121
15,RRIRQRPPRLPRPRPRPVANPRP,0.124
16,RRIRARPPRLPRPRPRPPDAPRP,1.25
17,RRIRFRPPRLPRPRPRPHEYPRP,-0.264
18,RRIRKRPPRLPRPRPRPKVQPRP,0.092
19,RRIRMRPPRLPRPRPRPWGQPRP,-0.0394
20,RRIRVRPPRLPRPRPRPWFDPRP,-0.439
21,RRIRQRPPRLPRPRPRPHRSPRP,-0.00875
22,RRIRCRPPRLPRPRPRPDFPPRP,0.137
23,RRIRRRPPRLPRPRPRPGMCPRP,0.269
24,RRIRLRPPRLPRPRPRPKMPPRP,-0.0152
25,RRIRQRPPRLPRPRPRPPWDPRP,0.224

row,Sequence,shrunken log2 fold change
1,RRIRIRPPRLPRPRPRPLFNPRP,-1.02
2,RRIRMRPPRLPRPRPRPDCYPRP,-0.15
3,RRIRIRPPRLPRPRPRPVFKPRP,-0.25
4,RRIRVRPPRLPRPRPRPLPTPRP,0.184
5,RRIRWRPPRLPRPRPRPARRPRP,0.495
6,RRIRCRPPRLPRPRPRPVTEPRP,-0.127
7,RRIRWRPPRLPRPRPRPMLSPRP,-0.0162
8,RRIRERPPRLPRPRPRPIWSPRP,0.0428
9,RRIRNRPPRLPRPRPRPATIPRP,-0.44
10,RRIRSRPPRLPRPRPRPNMRPRP,0.43
11,RRIRTRPPRLPRPRPRPRWMPRP,0.0454
12,RRIRGRPPRLPRPRPRPAPQPRP,1.15
13,RRIRARPPRLPRPRPRPICMPRP,0.055
14,RRIRLRPPRLPRPRPRPEFSPRP,-0.013
15,RRIRFRPPRLPRPRPRPFVRPRP,-0.0733
16,RRIRKRPPRLPRPRPRPSKVPRP,-0.131
17,RRIRSRPPRLPRPRPRPCIYPRP,-0.847
18,RRIRARPPRLPRPRPRPEAPPRP,1.11
19,RRIRLRPPRLPRPRPRPRMKPRP,-0.00259
20,RRIRQRPPRLPRPRPRPERTPRP,0.124
21,RRIRNRPPRLPRPRPRPIIGPRP,0.0444
22,RRIRPRPPRLPRPRPRPVPMPRP,0.0911
23,RRIRHRPPRLPRPRPRPTLHPRP,0.0488
24,RRIRDRPPRLPRPRPRPFYIPRP,-0.796
25,RRIRNRPPRLPRPRPRPSNKPRP,-0.259

row,Sequence,shrunken log2 fold change
1,RRIRQRPPRLPRPRPRPVQNPRP,0.0137
2,RRIRIRPPRLPRPRPRPNRVPRP,-0.0802
3,RRIRHRPPRLPRPRPRPEQFPRP,0.000995
4,RRIRPRPPRLPRPRPRPRMCPRP,0.152
5,RRIRFRPPRLPRPRPRPVIPPRP,-0.102
6,RRIRNRPPRLPRPRPRPRCFPRP,-0.404
7,RRIRTRPPRLPRPRPRPCHKPRP,0.014
8,RRIRGRPPRLPRPRPRPHPLPRP,0.101
9,RRIRKRPPRLPRPRPRPVGQPRP,0.0743
10,RRIRMRPPRLPRPRPRPDSDPRP,2.6
11,RRIRPRPPRLPRPRPRPKAKPRP,0.131
12,RRIRGRPPRLPRPRPRPRNDPRP,0.113
13,RRIRKRPPRLPRPRPRPCITPRP,-0.146
14,RRIRFRPPRLPRPRPRPCEMPRP,0.0297
15,RRIRSRPPRLPRPRPRPAAQPRP,0.833
16,RRIRIRPPRLPRPRPRPSKIPRP,-0.441
17,RRIRCRPPRLPRPRPRPWCNPRP,-0.412
18,RRIRQRPPRLPRPRPRPKIQPRP,-0.0232
19,RRIRCRPPRLPRPRPRPWSSPRP,0.615
20,RRIRQRPPRLPRPRPRPMGAPRP,0.132
21,RRIRWRPPRLPRPRPRPFGVPRP,0.227
22,RRIRGRPPRLPRPRPRPKAFPRP,0.157
23,RRIRVRPPRLPRPRPRPFCQPRP,-0.203
24,RRIRWRPPRLPRPRPRPQAHPRP,0.00175
25,RRIRLRPPRLPRPRPRPMPTPRP,0.449

row,Sequence,shrunken log2 fold change
1,RRIRCRPPRLPRPRPRPNDTPRP,-0.461
2,RRIRFRPPRLPRPRPRPAIGPRP,-0.0142
3,RRIRSRPPRLPRPRPRPKYGPRP,-0.884
4,RRIRVRPPRLPRPRPRPSFNPRP,-0.411
5,RRIRFRPPRLPRPRPRPRPAPRP,0.807
6,RRIRGRPPRLPRPRPRPARDPRP,0.585
7,RRIRERPPRLPRPRPRPIQPPRP,0.0319
8,RRIRDRPPRLPRPRPRPVDPPRP,0.0517
9,RRIRVRPPRLPRPRPRPCNDPRP,-0.437
10,RRIRQRPPRLPRPRPRPSFMPRP,-0.509
11,RRIRQRPPRLPRPRPRPVHVPRP,-0.0167
12,RRIRCRPPRLPRPRPRPCMWPRP,-0.124
13,RRIRLRPPRLPRPRPRPRKMPRP,0.281
14,RRIRLRPPRLPRPRPRPCPEPRP,-0.0401
15,RRIRVRPPRLPRPRPRPQIYPRP,-0.251
16,RRIRCRPPRLPRPRPRPEWTPRP,0.154
17,RRIRPRPPRLPRPRPRPVEIPRP,0.26
18,RRIRLRPPRLPRPRPRPQFGPRP,-0.291
19,RRIRRRPPRLPRPRPRPCNYPRP,0.159
20,RRIRMRPPRLPRPRPRPCHLPRP,-0.0745
21,RRIRPRPPRLPRPRPRPSDNPRP,-0.449
22,RRIRERPPRLPRPRPRPSPYPRP,-0.277
23,RRIRCRPPRLPRPRPRPPVVPRP,0.0152
24,RRIRPRPPRLPRPRPRPSIIPRP,-0.634
25,RRIRNRPPRLPRPRPRPPWDPRP,0.144

row,Sequence,shrunken log2 fold change
1,RRIRERPPRLPRPRPRPMLFPRP,-0.0835
2,RRIRQRPPRLPRPRPRPQIPPRP,-0.214
3,RRIRMRPPRLPRPRPRPCTYPRP,-0.00141
4,RRIRVRPPRLPRPRPRPMNRPRP,-0.182
5,RRIRDRPPRLPRPRPRPFYNPRP,-0.732
6,RRIRTRPPRLPRPRPRPDDDPRP,-0.00136
7,RRIRTRPPRLPRPRPRPFKWPRP,-0.121
8,RRIRRRPPRLPRPRPRPGDWPRP,0.465
9,RRIRYRPPRLPRPRPRPHQPPRP,-0.748
10,RRIRPRPPRLPRPRPRPILRPRP,-0.0705
11,RRIRYRPPRLPRPRPRPYDFPRP,-0.138
12,RRIRTRPPRLPRPRPRPGTAPRP,0.166
13,RRIRERPPRLPRPRPRPLGIPRP,-0.0554
14,RRIRKRPPRLPRPRPRPHSMPRP,0.0496
15,RRIRERPPRLPRPRPRPNGNPRP,-0.104
16,RRIRERPPRLPRPRPRPQGSPRP,-0.107
17,RRIRVRPPRLPRPRPRPSVDPRP,-0.193
18,RRIRPRPPRLPRPRPRPKVRPRP,0.161
19,RRIRRRPPRLPRPRPRPIEIPRP,0.0138
20,RRIRHRPPRLPRPRPRPLLPPRP,-0.0821
21,RRIRFRPPRLPRPRPRPRRYPRP,-0.0281
22,RRIRERPPRLPRPRPRPGEVPRP,0.0814
23,RRIRWRPPRLPRPRPRPLSDPRP,0.254
24,RRIRQRPPRLPRPRPRPCPCPRP,-0.354
25,RRIRIRPPRLPRPRPRPIDDPRP,0.0145
